Earlier results on one substance are cited in article PMC2933916.

Bounds are passed on as bounds.

For the series, the target named is S100B (UniProt P04271).

Usually Kd stands for the equilibrium constant for the complex coming apart. Consider S100B (from UniProt P04271), for which the dissociation constant Kd was less than 0.5 nM.
